Assay results: publication PMC10888690

Target: SmCAMTA2, split-YFP fusion for BiFC (Solanum melongena (eggplant))

LUC/REN ratio of the SmCBF2 promoter-LUC reporter in N. benthamiana leaves when SmERF1-62-SK and SmCAMTA2-62-SK were co-present: 2 fold
Substance: SmERF1, construct for BiFC (natural protein)
